Data taken from patent US20030144483A1 (Bristol-Myers Squibb, published 2003).

Legend:
[1] = biological target: human FcγRI on cells (monocytes, IFN-γ-treated neutrophils, U937 cells) (human) (UniProt P12314); assay: flow cytometry, FITC antibody on monocytes, average of duplicates
[2] = biological target: T1, soluble fusion protein consisting of the extracellular domain of human FcγRI and human IgM heavy chain … (human, UniProt P12314 16-292; P01871 106-453); assay: ELISA on captured sFcγRI-µ, in excess human IgG1 lambda
T1 construct: From supernatant of transiently transfected COS cells, captured on plates with goat anti-human IgM; also called FcRI/IgM fusion protein; FcγRI/IgM heavy chain fusion protein
T1 sequence (P12314 other isoform, or with tags, fused parts or gaps): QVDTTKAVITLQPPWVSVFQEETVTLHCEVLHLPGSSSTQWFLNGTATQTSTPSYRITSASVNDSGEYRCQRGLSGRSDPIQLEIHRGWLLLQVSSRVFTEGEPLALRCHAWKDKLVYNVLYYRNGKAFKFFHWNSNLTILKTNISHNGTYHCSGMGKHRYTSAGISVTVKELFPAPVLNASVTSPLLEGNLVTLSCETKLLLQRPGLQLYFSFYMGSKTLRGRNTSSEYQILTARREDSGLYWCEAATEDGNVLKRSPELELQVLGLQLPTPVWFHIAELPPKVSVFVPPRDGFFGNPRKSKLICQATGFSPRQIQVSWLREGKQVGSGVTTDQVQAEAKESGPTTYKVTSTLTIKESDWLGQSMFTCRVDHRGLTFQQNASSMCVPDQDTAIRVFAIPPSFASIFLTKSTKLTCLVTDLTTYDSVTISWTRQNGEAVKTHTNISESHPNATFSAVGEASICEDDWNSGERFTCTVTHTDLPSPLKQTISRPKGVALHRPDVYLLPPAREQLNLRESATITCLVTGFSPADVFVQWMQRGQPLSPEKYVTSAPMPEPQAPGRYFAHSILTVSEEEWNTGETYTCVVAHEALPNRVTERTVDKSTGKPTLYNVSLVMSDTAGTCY
Protocol: The binding of the antibodies to antigen was measured by ELISA. Wells of a microtitre plate (Immunlon 1, Dynatech, Chantilly, Va.) were coated with 200 ng goat anti-human IgM antibodies (Sera-lab, Crawley Down, U.K.) in 100 μl 50 mM carbonate buffer pH 9.6 at 37° C. for at least one hour. Wells were emptied and washed once with PBST and blocked with 1% BSA in PBS at room temperature for thirty minutes. The wells were emptied and washed with PBST and Cos supernatant containing FcRI/IgM fusion protein was added and incubated for one hour at room temperature. Wells were then emptied and washed three times with PBST and test antibodies diluted in 1% BSA/PBS were added and incubated for one hour at room temperature. In addition, each well contained 2 μg human IgGI, lambda antibody (Sigma, Poole, U.K.) The wells were then emptied, washed three times with PBST and 40 ng peroxidase goat anti-human kappa constant region antibodies (Sera-Lab, Crawley Down, U.K.) in 100 μl 1% BSA/PBS added to each well. After incubation for one hour at room temperature, the wells were emptied, washed three time with PBST and 10 μl HPD substrate buffer was added.
The wells of a microtiter plate were coated with goat anti-human IgM antibodies (Sera-Lab, Crawley Down, U.K.) in 50 mM bicarbonate buffer, pH 9.6. […]

Chain of human FcγRI on cells (monocytes, IFN-γ-treated neutrophils, U937 cells) (human) (P12314 16-374): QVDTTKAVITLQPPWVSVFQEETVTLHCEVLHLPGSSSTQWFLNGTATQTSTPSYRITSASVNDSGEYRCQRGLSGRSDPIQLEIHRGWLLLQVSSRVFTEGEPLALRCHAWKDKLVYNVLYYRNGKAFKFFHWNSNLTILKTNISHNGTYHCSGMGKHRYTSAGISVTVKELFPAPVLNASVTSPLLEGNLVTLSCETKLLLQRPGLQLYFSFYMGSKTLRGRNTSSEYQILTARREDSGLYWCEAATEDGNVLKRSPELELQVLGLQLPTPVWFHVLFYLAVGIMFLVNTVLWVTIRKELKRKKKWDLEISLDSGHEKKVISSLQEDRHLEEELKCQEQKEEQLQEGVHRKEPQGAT

Molecule | antibody sites per cell (monocytes) (antibody sites per cell) [1] | fold lower affinity than the chimeric mAb [2] [fold]
humanized mAb 22, KOL VH/REI Vκ mAb, designated H22 (antibody) | 10500 | 
humanized NEWM VH/REI Vκ mAb (antibody, human IgG1, V domains shown, Human IgG1 and human kappa constant regions; also called NEWM/REI based antibody; NMVK/HuVK) VH: QVQLQESGPGLVRPSQTLSLTCTVSGFIFSDNYMYWVRQPPGRGLEWIGTISDGGSYTYYPDSVKGRVTMLRDTSKNQFSLRLSSVTAADTAVYYCARGYYRYEGAMDYWGQGSLVTVSS VL: DIQLTQSPSSLSASVGDRVTITCKSSQSVLYSSNQKNYLAWYQQKPGKAPKLLIYWASTRESGVPSRFSGSGSGTDFTFTISSLQPEDIATYYCHQYLSSWTFGQGTKVEIK |  | ~5
